{
  "source": "patent US10500274B2",
  "about": "“Methods for reducing viral load in HIV-1 infected patients” (CytoDyn Inc., priority 2008, dated 2019)",
  "molecules": {"B1": {"name": "PRO 140: humanized IgG4,κ anti-CCR5 mAb, humanized version of the murine mAb PA14 (antibody, chains of the INN, looked up, V domains shown)", "VH": "EVQLVESGGGLVKPGGSLRLSCAASGYTFSNYWIGWVRQAPGKGLEWIGDIYPGGNYIRNNEKFKDKTTLSADTSKNTAYLQMNSLKTEDTAVYYCGSSFGSNYVFAWFTYWGQGTLVTVSS", "VL": "DIVMTQSPLSLPVTPGEPASISCRSSQRLLSSYGHTYLHWYLQKPGQSPQLLIYEVSNRFSGVPDRFSGSGSGTDFTLKISRVEAEDVGVYYCSQSTHVPLTFGQGTKVEIK"}},
  "test_system": "R5-tropic HIV-1",
  "assay": "Phase 1b clinical study: plasma HIV-1 RNA",
  "format": "in vivo, human",
  "experimental": "Plasma HIV-1 RNA levels were determined with the Cobas Amplicor HIV-1 Monitor Test (Version 1.5; Roche Diagnostics, Branchburg, N.J.). Samples <400 copies/mL were re-analyzed with the Ultrasensitive Monitor Method. Co-receptor tropism was determined at screening and Days 1, 8, 29 and 59 (Trofile™ assay, Monogram Biosciences, Inc., South San Francisco, Calif.). Viral susceptibility was determined on Days 1 and 59 with the Phenosense™ HIV Entry assay. Results obtained with CCR5^+ target cells were reported as Fold Change or relative EC50 (rEC50), which was defined as (EC50 test isolate)/(EC50 reference virus). […] Maximum percent inhibitions were determined from the plateaus of the inhibition curves. The reference virus was HIV-192HT594, a low-passage dual-tropic isolate. GeneSeq™ (Monogram Biosciences) was used to assess HIV-1 subtype and genotypic susceptibility to protease and reverse transcriptase inhibitors.\nStatistical analyses were performed on log10 transformed HIV-1 RNA data, and changes were calculated relative to baseline (Day 1 pre-dose). Treatment and placebo groups were compared using an analysis of variance (ANOVA) model. […] In addition, 2-sided paired t-tests were used to evaluate changes from baseline in CCR5^+ lymphocytes. Where necessary, end-of-study lymphocyte data were used in place of missing baseline data. […] AUC∞ values for individual subjects were used in the model. Clinical Trial Design and Study Results:\nThe subjects comprised 31 males and 8 females, and their median age, CD4 counts and plasma HIV-1 RNA levels at baseline were 40.3 years, 484 cells/μL and 26,900 copies/mL, respectively Fifteen subjects reported prior use of antiretroviral therapy, and seven were co-infected with hepatitis C virus (HCV). All viruses were subtype B, and baseline genotypic resistance to existing drugs was limited to single-class resistance in two subjects in the 2 mg/kg group and a single subject in each of the other groups. The mean infusion time was 36 minutes, and all subjects completed the 58-day follow-up period. All patients were screened prior to the study for the presence of virus that utilizes only CCR5 as the entry coreceptor, i.e., CCR5-tropic virus.",
  "note": "Several values for one entry are separate records, joined by “and”; a condition that tells them apart may be missing. Equal values may be shown once.",
  "data": [
    {"molecule": "B1", "values": [
      {"measurement": "AUC50, exposure required to achieve 50% of Emax", "setting": "Emax model", "result": "43.7 ± 15.6", "unit": "mg·days/L"},
      {"measurement": "Mean HIV-1 RNA reduction (maximum)", "setting": "HIV-infected adults, single IV 0.5 mg/kg", "result": 0.58, "unit": "log10"},
      {"measurement": "day by which viral loads returned to baseline", "setting": "all treatment groups", "result": "≤ 29", "unit": "days"},
      {"measurement": "lowest documented HIV-1 RNA level on study", "setting": "human, in vivo", "result": 61, "unit": "copies/mL"},
      {"measurement": "Log10 change from baseline in HIV-1 RNA: Mean (±SD) of individual nadirs", "setting": "single IV 0.5 mg/kg", "result": "−0.58 ± 0.30", "unit": "log10"},
      {"measurement": "antiviral response rate (subjects with ≥1.0 log10 reduction at any time)", "setting": "single IV 0.5 mg/kg", "result": 10, "unit": "%"},
      {"measurement": "mean log10 decline in viral load at Day 10", "setting": "single IV 0.5 mg/kg", "result": 0.37, "unit": "log10"},
      {"measurement": "Log10 change from baseline in HIV-1 RNA: Mean (±SD) at Day 10", "setting": "single IV 0.5 mg/kg, 0.5 mg/kg", "result": "−0.37 log10 and −0.37 ± 0.54 log10"},
      {"measurement": "Log10 change from baseline in HIV-1 RNA: Mean (±SD) of individual nadirs", "setting": "single IV 2 mg/kg", "result": "−1.20 ± 0.63", "unit": "log10"},
      {"measurement": "Mean HIV-1 RNA reduction (maximum)", "setting": "single IV 2 mg/kg", "result": 1.20, "unit": "log10"},
      {"measurement": "antiviral response rate (subjects with ≥1.0 log10 reduction at any time)", "setting": "single IV 2 mg/kg", "result": 60, "unit": "%"},
      {"measurement": "mean log10 decline in viral load at Day 10", "setting": "single IV 2 mg/kg", "result": 1.04, "unit": "log10"},
      {"measurement": "Individual HIV-1 RNA reductions (ranged to)", "setting": "single IV 2 mg/kg, 2 mg/kg", "result": "up to 2.5 log10 and ≤ 2.5 log10"},
      {"measurement": "Log10 change from baseline in HIV-1 RNA: Mean (±SD) at Day 10", "setting": "single IV 2 mg/kg, 2 mg/kg", "result": "−1.04 log10 and −1.04 ± 0.45 log10"},
      {"measurement": "Mean HIV-1 RNA reduction (average maximum decrease of viral load)", "setting": "single IV 5 mg/kg", "result": 1.83, "unit": "log10"},
      {"measurement": "antiviral response rate (subjects with ≥1.0 log10 reduction at any time)", "setting": "single IV 5 mg/kg", "result": 100, "unit": "%"},
      {"measurement": "day on which mean viral load reductions of 1 log10 were first observed", "setting": "single IV 5 mg/kg", "result": 5, "unit": "Day"},
      {"measurement": "mean log10 decline in viral load at Day 10 (nine days post-treatment)", "setting": "single IV 5 mg/kg", "result": 1.70, "unit": "log10"},
      {"measurement": "persistence of mean 1 log10 viral load reduction post-treatment", "setting": "single IV 5 mg/kg", "result": "2-3 weeks"},
      {"measurement": "viral load change at day 22", "setting": "single IV 5 mg/kg", "result": "−0.73", "unit": "log"},
      {"measurement": "Individual HIV-1 RNA reductions (ranged to)", "setting": "single IV 5 mg/kg, 5 mg/kg", "result": "up to 2.5 log10 and ≤ 2.5 log10"},
      {"measurement": "Log10 change from baseline in HIV-1 RNA: Mean (±SD) at Day 10", "setting": "single IV 5 mg/kg, 5 mg/kg", "result": "−1.70 log10 and −1.70 ± 0.49 log10"},
      {"measurement": "Log10 change from baseline in HIV-1 RNA: Mean (±SD) of individual nadirs", "setting": "single IV 5 mg/kg, 5 mg/kg", "result": "−1.8 log10 and −1.84 ± 0.41 log10"}
    ]}
  ]
}
